Results on four molecules are retold here after article PMC4081063, “The conformational state of the nucleosome entry–exit site modulates TATA box-specific TBP binding”.

For data set [1], the target named is T1, TBP (human TATA binding protein) (Homo sapiens, UniProt P20226 1-339). Kind of data set: bulk FRET; 50 mM KCl, 4 mM Mg2+; 20 mM Tris pH 7.9, 4 mM MgCl2, 1 mM DTT, 5% glycerol, 5-150 mM KCl as indicated, 1 nM labeled DNA (1-5 nM in Results), 20 min; 25 C (37 C tested). The note with it: protein: recombinant; label: 5' ends labeled with donor (Atto-488) and acceptor (Atto-633 or Atto-647N); blunt.
T1 sequence (P20226 whole entry): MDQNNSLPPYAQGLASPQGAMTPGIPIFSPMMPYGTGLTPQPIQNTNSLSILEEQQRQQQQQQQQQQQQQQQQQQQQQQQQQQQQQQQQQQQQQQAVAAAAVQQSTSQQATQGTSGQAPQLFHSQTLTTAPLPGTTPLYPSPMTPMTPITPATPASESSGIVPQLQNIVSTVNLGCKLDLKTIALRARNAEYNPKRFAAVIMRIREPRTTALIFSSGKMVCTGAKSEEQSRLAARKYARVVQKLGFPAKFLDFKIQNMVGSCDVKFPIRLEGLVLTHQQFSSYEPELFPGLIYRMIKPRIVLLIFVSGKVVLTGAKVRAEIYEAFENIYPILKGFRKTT

The target in data set [2] is T1, TBP (human TATA binding protein). Kind of data set: bulk FRET; 150 mM KCl, 4 mM Mg2+; 20 mM Tris pH 7.9, 4 mM MgCl2, 1 mM DTT, 5% glycerol, 5-150 mM KCl as indicated, 1 nM labeled DNA (1-5 nM in Results), 20 min; 25 C (37 C tested). The note with it: protein: recombinant, blunt.
The target is the same in data set [3]. Description: bulk FRET; similar to TATA-14E; stoichiometry 1.1 TBP:DNA; 20 mM Tris pH 7.9, 4 mM MgCl2, 1 mM DTT, 5% glycerol, 5-150 mM KCl as indicated, 1 nM labeled DNA (1-5 nM in Results), 20 min; 25 C (37 C tested). The note with it: protein: recombinant; label: 5' ends labeled with donor and acceptor; blunt.
Data set [4] shares this target. Kind of data set: bulk FRET; 5-150 mM KCl; biphasic at low salt; similar at 25 and 37 C; 20 mM Tris pH 7.9, 4 mM MgCl2, 1 mM DTT, 5% glycerol, 5-150 mM KCl as indicated, 1 nM labeled DNA (1-5 nM in Results), 20 min; 25 C (37 C tested). The note with it: protein: recombinant; label: 5' donor and internal amino-dT acceptor 18 bp away, same strand; blunt.

What is called Kd is the constant that tells how readily two partners part at equilibrium.

B1: TATA-14E (dsDNA)
DNA 1: GGCTATAAAAGGGG
DNA 2: CCCCTTTTATAGCC
For B1, the Kd is 5 ± 1 nM in data set [1]; 10 ± 3 nM in data set [2] (label: 5' ends labeled with donor (Atto-488) and acceptor (Atto-633 or Atto-647N)).

B2: TATA-14E* (dsDNA)
DNA 1: GGGTATAAAAGGGG
DNA 2: CCCCTTTTATACCC
For the molecule B2, in data set [3], the binding result is recorded as “binds”.

B3: TATA-14I (dsDNA)
DNA 1: TGGTATAAAAGGGTGCGGACACGTG
DNA 2: CACGTGTCCGCACCCTTTTATACCA
Regarding B3, the Kd in data set [2] (label: 5' donor and internal amino-dT acceptor 14 bp away, same strand) turned out to be 6 ± 1 nM.

B4: TATA-18I (dsDNA)
DNA 1: TGGGGTATAAAAGGGGGTGGACACGTG
DNA 2: CACGTGTCCACCCCCTTTTATACCCCA
For B4, the binding result in data set [4] was “binds”.
